The values that follow come from paper doi:10.1101/2021.07.05.451109 (bioRxiv, 2021).

By pKi is commonly meant −log10 of the Ki, conventionally taken in molar units. The low end stands for a high Ki, the high end for a low Ki.

The target in test [1] is NLuc/CXCR4 (genome-edited, HEK293 cells) (human (endogenous in HEK293), UniProt P61073 1-352). In words: FRET or BRET. For orientation: Bioluminescence resonance energy transfer reports proximity on the nanometre scale.
Test [2] addresses NLuc/CXCR4 (genome-edited, HeLa cells) (human (endogenous in HeLa), UniProt P61073 1-352). In words: FRET or BRET.

Chain of NLuc/CXCR4 (genome-edited, HEK293 cells) (P61073 whole entry): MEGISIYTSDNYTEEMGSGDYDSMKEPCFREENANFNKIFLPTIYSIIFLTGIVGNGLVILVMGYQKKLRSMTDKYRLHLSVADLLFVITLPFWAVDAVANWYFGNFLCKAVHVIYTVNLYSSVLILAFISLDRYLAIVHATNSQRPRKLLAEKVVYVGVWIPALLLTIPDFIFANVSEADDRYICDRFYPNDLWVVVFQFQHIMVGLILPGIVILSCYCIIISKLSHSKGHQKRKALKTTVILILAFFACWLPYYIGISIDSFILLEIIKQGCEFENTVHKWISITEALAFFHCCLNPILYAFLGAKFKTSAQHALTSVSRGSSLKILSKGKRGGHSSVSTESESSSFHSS
Chain of NLuc/CXCR4 (genome-edited, HeLa cells) (P61073 whole entry): as above

B1: 24Leu-CXCL17 (ligand)
chain: LNPGVARGHRDRGQASRRWLQEGGQECECKDWFLRAPRRKFMTVSGLPKKQCPCDHFKGNVKKTRHQRHHRKPNKHSRACQQFLKQCQLRSFALPL
With B1, the pKi in test [1] was 6.14 ± 0.3; in test [2] it was 6.15 ± 0.27.
